Our source for the koff, Kd and kon values is patent US20200048372A1 (UCB, published 2020).

For test [1], the target named is T1, human serum albumin (human, UniProt P02768 25-609).
T1 construct: also called HSA; HumanSA
As to the kind of experiment: SPR (Biacore), purified construct captured, HSA injected. Background: SPR reads the build-up and loss of mass on a sensor chip optically.

Another test deals with T2, mouse serum albumin (mouse, UniProt P07724 25-608).
T2 construct: also called MSA; MurineSA
In words: SPR (Biacore), purified construct captured, MSA injected.

Test [2] concerns the target T1, human serum albumin. In words: SPR (Biacore).

B1: FabB-didAb, -dAbL1 (CK-G4Sx2) & dAbH1 (CH1-G4Sx2) (bispecific antibody)
heavy: ASTKGPSVFPLAPSSKSTSGGTAALGCLVKDYFPEPVTVSWNSGALTSGVHTFPAVLQSSGLYSLSSVVTVPSSSLGTQTYICNVNHKPSNTKVDKKVEPKSCGGGGSGGGGSEVQLLESGGGLVQPGGSLRLSCAVSGIDLSNYAINWVRQAPGKGLEWIGIIWASGTTFYATWAKGRFTISRDSTTVYLQMNSLRAEDTAVYYCARTVPGYSTAPYFDLWGQGTLVTVSS
light: RTVAAPSVFIFPPSDEQLKSGTASVVCLLNNFYPREAKVQWKVDNALQSGNSQESVTEQDSKDSTYSLSSTLTLSKADYEKHKVYACEVTHQGLSSPVTKSFNRGECGGGGSGGGGSDIVMTQSPSSVSASVGDRVTITCQSSPSVWSNFLSWYQQKPGKAPKLLIYEASKLTSGVPSRFKGSGSGTDFTLTISSLQPEDFATYYCGGGYSSISDTTFGGGTKVEIK
notes: also called FabB-645Fv (G4Sx2); FabB-645Fv (2xG4S)
The term koff denotes the first-order rate constant of dissociation. High values mean fast dissociation, low ones slow dissociation. Turning to B1, the koff with human serum albumin [1] stood at 0.000206 s⁻¹; with mouse serum albumin, 0.000182 s⁻¹.

B2: FabB-645dsFv (S3xG4S) with Fv heavy mutation T100aA (bispecific antibody, part only; not given: anti-OX40 Fab and linkers, V domains shown, not shown: another chain or arm of the molecule; large carriers; small tags and cut ends)
VH: EVQLLESGGGLVQPGGSLRLSCAVSGIDLSNYAINWVRQAPGKCLEWIGIIWASGTTFYATWAKGRFTISRDSTTVYLQMNSLRAEDTAVYYCARTVPGYSAAPYFDLWGQGTLVTVSS
VL: DIVMTQSPSSVSASVGDRVTITCQSSPSVWSNFLSWYQQKPGKAPKLLIYEASKLTSGVPSRFKGSGSGTDFTLTISSLQPEDFATYYCGGGYSSISDTTFGCGTKVEIK
modifications: Interchain disulfide between VH Cys44 and VL Cys100 (Kabat) of the dsFv
As usually defined, the Kd is the constant that tells how readily two partners part at equilibrium. High values mean weaker binding, low ones tighter binding. What is called kon is the rate constant with which the complex forms. High values mean faster complex formation, low ones slower complex formation. As for B2, in the test with human serum albumin [2], the Kd amounted to 51.6 nM, the koff came to 0.0186 s⁻¹ and the kon was 360000 M⁻¹ s⁻¹.
